Literature values, collected in patent US9700485B2, “Delamination resistant pharmaceutical glass containers containing active pharmaceutical ingredients” (Corning Incorporated, priority 2013, dated 2017).
Like-named read-outs stand apart in the source and are kept apart here.

Legend:
[1] = shaking test, 5 samples, cited from earlier work
[2] = in use test, 10 samples, cited from earlier work
HT-29 cells = conditions: cited from earlier work
human IL-17 [3] = molecular target: T1, human IL-17 (Homo sapiens, UniProt Q16552); conditions: cited from earlier work; for Kd: read-out: KD or binding affinity
T1 sequence (Q16552 24-155): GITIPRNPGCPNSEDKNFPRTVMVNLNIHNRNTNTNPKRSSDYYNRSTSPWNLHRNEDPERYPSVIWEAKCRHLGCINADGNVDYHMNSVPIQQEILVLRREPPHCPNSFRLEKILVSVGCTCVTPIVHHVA

EGFR [4] = molecular target: T2, EGFR (Homo sapiens, UniProt P00533); conditions: cited from earlier work
A431 cells = conditions: cited from earlier work; for tumor growth: three times per week
DiFi cells [5] = conditions: cited from earlier work
EGFR-AP fusion protein = conditions: cited from earlier work; for Koff / Kon: BIAcore, immobilized EGFR-AP fusion protein
BxPC-3 cells = conditions: 1.0 mg/mouse/injection; out of 8 mice; cited from earlier work
EGFR [6] = molecular target: T2, EGFR; design: phosphorylation assay, was carried out using BxPC3 or A431 cells; endogenous in cells; host or cells: BxPC3 or A431; conditions: BxPC3 and A431 cells; vs control antibody; cited from earlier work
MAP kinases p44/p42 = conditions: A431, BxPC3 and HT-29 cells; EGF stimulation; cited from earlier work
EGFR [7] = molecular target: T2, EGFR; design: endogenous in cells; host or cells: A431; inhibition of EGFR phosphorylation: dose or concentration left out as unconfirmed; conditions: cited from earlier work
EGFR on HT29 cells = molecular target: T3, EGFR on HT29 cells (Homo sapiens, UniProt P00533); conditions: 10 to 100 nM; cited from earlier work
T3 construct: HT29 cells were seeded at 2×10^4 cells per well; endogenous in cells; host or cells: HT29

DiFi cells [8] = conditions: 72 hours; cited from earlier work
A431 and BxPC3 xenograft = A431 and BxPC3 xenograft sections; cited from earlier work
[9] = 40° C. up to 14 days; DOE; cited from earlier work
[10] = −20° C. up to 16 days; DOE; cited from earlier work
human IL-17 [11] = molecular target: T1, human IL-17; conditions: as characterized in the description, cited from earlier work
hTNFSF13b = molecular target: T4, hTNFSF13b (Homo sapiens, UniProt Q9Y275); conditions: as characterized in the description (e.g.); cited from earlier work
T4 construct: purchased Research Diagnostics, Inc., Flanders, N.J
T4 sequence (Q9Y275 134-285 limits assumed): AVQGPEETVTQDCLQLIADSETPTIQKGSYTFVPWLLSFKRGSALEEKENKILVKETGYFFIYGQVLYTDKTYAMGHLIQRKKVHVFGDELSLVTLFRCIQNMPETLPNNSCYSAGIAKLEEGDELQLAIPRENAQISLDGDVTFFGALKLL

21^A-Gly-30^Ba-L-Arg-30^B-L-Arg human insulin [Insulin glargine]
Number of Vials >15 FNU, 0 days ([1]; storage for 1 month at 5° C.): 0 | Number of Vials >15 FNU, 0.5 days ([1]; storage for 1 month at 5° C.): 0 | Number of Vials >15 FNU, 1 day ([1]; storage for 1 month at 5° C.): 0 | Number of Vials >15 FNU, 2 days ([1]; storage for 1 month at 5° C.): 2 | Number of Vials >15 FNU, 3 days ([1]; storage for 1 month at 5° C.): 3 | Number of Vials >15 FNU, 4 days ([1]; storage for 1 month at 5° C.): 3 | Number of Vials >15 FNU, 6 days ([1]; storage for 1 month at 5° C.): 4 | Number of Vials >15 FNU, 8 days ([1]; storage for 1 month at 5° C.): 4 | Number of Vials >15 FNU, 10 days ([1]; storage for 1 month at 5° C.): 4 | Number of Vials >15 FNU, 0 days ([1]; storage for 1 month at 25° C.): 0 | Number of Vials >15 FNU, 0.5 days ([1]; storage for 1 month at 25° C.): 0 | Number of Vials >15 FNU, 1 day ([1]; storage for 1 month at 25° C.): 0 | Number of Vials >15 FNU, 2 days ([1]; storage for 1 month at 25° C.): 1 | Number of Vials >15 FNU, 3 days ([1]; storage for 1 month at 25° C.): 1 | Number of Vials >15 FNU, 4 days ([1]; storage for 1 month at 25° C.): 1 | Number of Vials >15 FNU, 6 days ([1]; storage for 1 month at 25° C.): 1 | Number of Vials >15 FNU, 8 days ([1]; storage for 1 month at 25° C.): 2 | Number of Vials >15 FNU, 10 days ([1]; storage for 1 month at 25° C.): 3 | Number of Vials >15 FNU, 0 days ([1]; storage for 1 month at 37° C.): 0 | Number of Vials >15 FNU, 0.5 days ([1]; storage for 1 month at 37° C.): 0 | Number of Vials >15 FNU, 1 day ([1]; storage for 1 month at 37° C.): 0 | Number of Vials >15 FNU, 2 days ([1]; storage for 1 month at 37° C.): 2 | Number of Vials >15 FNU, 3 days ([1]; storage for 1 month at 37° C.): 5 | Number of Vials >15 FNU, 4 days ([1]; storage for 1 month at 37° C.): 5 | Number of Vials >15 FNU, 6 days ([1]; storage for 1 month at 37° C.): 5 | Number of Vials >15 FNU, 8 days ([1]; storage for 1 month at 37° C.): 5 | Number of Vials >15 FNU, 10 days ([1]; storage for 1 month at 37° C.): 5 | Number of vials with particle formation after 7 days ([2]; storage for 1 month at 37° C.): 0 | Number of vials with particle formation after 14 days ([2]; storage for 1 month at 37° C.): 10 | Number of vials with particle formation after 21 days ([2]; storage for 1 month at 37° C.): 10 | Number of vials with particle formation after 28 days ([2]; storage for 1 month at 37° C.): 10 | Number of vials with particle formation after 7 days ([2]; storage for 3 months at 5° C.): 7 | Number of vials with particle formation after 14 days ([2]; storage for 3 months at 5° C.): 10 | Number of vials with particle formation after 21 days ([2]; storage for 3 months at 5° C.): 10 | Number of vials with particle formation after 28 days ([2]; storage for 3 months at 5° C.): 10 | Number of vials with particle formation after 7 days ([2]; storage for 3 months at 25° C.): 9 | Number of vials with particle formation after 14 days ([2]; storage for 3 months at 25° C.): 10 | Number of vials with particle formation after 21 days ([2]; storage for 3 months at 25° C.): 10 | Number of vials with particle formation after 28 days ([2]; storage for 3 months at 25° C.): 10 | Number of vials with particle formation after 7 days ([2]; storage for 3 months at 37° C.): 5 | Number of vials with particle formation after 14 days ([2]; storage for 3 months at 37° C.): 9 | Number of vials with particle formation after 21 days ([2]; storage for 3 months at 37° C.): 10 | Number of vials with particle formation after 28 days ([2]; storage for 3 months at 37° C.): 10 | Number of vials with particle formation after 7 days ([2]; storage for 6 months at 5° C.): 7 | Number of vials with particle formation after 14 days ([2]; storage for 6 months at 5° C.): 10 | Number of vials with particle formation after 21 days ([2]; storage for 6 months at 5° C.): 10 | Number of vials with particle formation after 28 days ([2]; storage for 6 months at 5° C.): 10 | Number of vials with particle formation after 7 days ([2]; storage for 6 months at 25° C.): 10 | Number of vials with particle formation after 14 days ([2]; storage for 6 months at 25° C.): 10 | Number of vials with particle formation after 21 days ([2]; storage for 6 months at 25° C.): 10 | Number of vials with particle formation after 28 days ([2]; storage for 6 months at 25° C.): 10 | Number of vials with particle formation after 7 days ([2]; storage for 6 months at 37° C.): 10 | Number of vials with particle formation after 14 days ([2]; storage for 6 months at 37° C.): 10 | Number of vials with particle formation after 21 days ([2]; storage for 6 months at 37° C.): 10 | Number of vials with particle formation after 28 days ([2]; storage for 6 months at 37° C.): 10

Human IL-17: recombinant human IL-17 (R&D Systems)
AVG GROα (HT-29 cells; Human IL-17 0.10 ng/mL): 205.8 pg/mL | AVG GROα (HT-29 cells; Human IL-17 12.00 ng/mL): 960.0 pg/mL | AVG GROα (pg/mL) (HT-29 cells; Human IL-17 60.00 ng/mL): 1,556.0 pg/mL | AVG GROα (pg/mL) (HT-29 cells; Human IL-17 300.00 ng/mL): 2,047.5 pg/mL | AVG GROα (pg/mL) (HT-29 cells; Human IL-17 1500.00 ng/mL): 2,420.4 pg/mL

IL-17 receptor Fc-fusion protein: IL-17 receptor Fc-fusion protein (R&D #177-IR)
fast off-rate (human IL-17 [3]; Bivalent analyte model, 25° C.): 20.3 s⁻¹ | on-rate (human IL-17 [3]; Bivalent analyte model, 25° C.): 106000 M⁻¹ s⁻¹ | slow off-rate (human IL-17 [3]; Bivalent analyte model, 25° C.): 0.000163 s⁻¹ | Kd (human IL-17 [3]; from fast off-rate): 190000 nM | Kd (human IL-17 [3]; from slow off-rate): 1.5 nM

IMC-11F8: fully human monoclonal antibody (IgG1) that binds to human EGFR
binding to EGFR (ELISA) (EGFR [4]): comparable binding to EGFR | tumor growth (A431 cells; 0.3 mg dose i.p.): progression of tumor growth is retarded | tumor growth (A431 cells; 1 mg dose i.p.): as effective as IMC-C225 (CETUXIMAB) in suppressing or inhibiting tumor growth as compared to control animals | tumor regressions (A431 cells; 1.0 mg/mouse/injection, out of 8 animals): 6 | ADCC activity (DiFi cells [5]): mediate cell death via activation of the Antibody Dependent Cellular Cytotoxicity | Koff (EGFR-AP fusion protein; Format Fab): 36.7 ± 8.5 10^−4s^−1 | Kon (EGFR-AP fusion protein; Format Fab): 22.9 ± 9.9 10^5 M^−1s^−1 | Kd (EGFR-AP fusion protein; Format Fab, calculated as koff/kon): 1.78 ± 0.5 nM | Koff (EGFR-AP fusion protein; Format IgG): 5.8 ± 2.2 10^−4s^−1 | Kon (EGFR-AP fusion protein; Format IgG): 18.6 ± 7.7 10^5 M^−1s^−1 | tumor regression (BxPC-3 cells): 5 | phosphorylation of EGFR (KIRA) (EGFR [6]): marked decrease in phosphorylation of EGFR | p44/42 MAP kinases phosphorylation (MAP kinases p44/p42): blocked p44/42 MAP kinases phosphorylation following EGF stimulation in A431, BxPC3 and HT-29 cells in a dose-dependent manner | inhibition of EGFR phosphorylation (EGFR [7]; A431, BxPC3, HT-29, lowest antibody concentration tested): Greater than 70% | EGFR phosphorylation (Western blot) (EGFR [7]; A431 cells): inhibits EGFR phosphorylation | inhibition of ^125I-EGF binding (EGFR on HT29 cells): as efficient as IMC-C225 in inhibiting ^125I-EGF binding to EGFR on HT29 cells | inhibition of cell proliferation (MTT) (DiFi cells [8]): as potent an inhibitor of cell proliferation as IMC-C225 | Ki-67 positive cells (A431 and BxPC3 xenograft): reduced the percentage of Ki-67 positive cells across the entire tumor section | tumor cell density and necrotic area (IHC) (A431 and BxPC3 xenograft): markedly reduced the tumor cell density and increased the area of necrotic acellular debris within the tumors

IMC-1121B: fully human monoclonal (IgG1) anti-VEGFR-2 (flk-1) antibody
optimal buffer [9]: histidine at pH 6.0 | optimal pH [10]: 6.0

LY2439821: humanized anti-IL-17 (IL-17A) monoclonal antibody
koff rate from human IL-17 (human IL-17 [11]): less than 2×10^−5 s^−1 | Kd (human IL-17 [11]; read-out: binding affinity (KD) for human IL-17): < 0.007 nM

B1: LY2127399: human monoclonal antibody that specifically binds to TNFSF13b polypeptides (antibody, chains of the INN, looked up, V domains shown)
VH: QVQLQQWGAGLLKPSETLSLTCAVYGGSFSGYYWSWIRQPPGKGLEWIGEINHSGSTNYNPSLKSRVTISVDTSKNQFSLKLSSVTAADTAVYYCARGYYDILTGYYYYFDYWGQGTLVTVSS
VL: EIVLTQSPATLSLSPGERATLSCRASQSVSRYLAWYQQKPGQAPRLLIYDASNRATGIPARFSGSGSGTDSTLTISSLEPEDFAVYYCQQRSNWPRTFGQGTKVEIK
Kd (hTNFSF13b): ≤ 10 nM
